Test results: publication PMC8287571

Experiments:
[1] = system: GST:RBD (Arabidopsis thaliana); assay: EMSA; details: EMSA: 5 ng RNA in 10 ul Union Buffer (100 mM Tris-HCl pH 8.0, 1 M NaCl, 8 U RiboLock (so in the source)), 30 min at 4 C, 1.2% agarose; northwestern: 10 mM Tris-HCl pH …
[2] = system: GST:atALKBH9B wt (Arabidopsis thaliana); assay: EMSA; details: EMSA: 5 ng RNA in 10 ul Union Buffer (100 mM Tris-HCl pH 8.0, 1 M NaCl, 8 U RiboLock (so in the source)), 30 min at 4 C, 1.2% agarose; northwestern: 10 mM Tris-HCl pH …

Substance: 3'UTR transcript of AMV RNA3/4
- Kd [1]: 640 nM
- Kd [2]: 300 nM
